The record followed here is patent US20130236459A1 (MERRIMACK PHARMACEUTICALS, published 2013).

Positions count from the first letter of the chain named. Read-outs that look alike come from different tables or passages of the source.

For assay [1], the target named is T1, mouse IGF-1R-His (mouse, UniProt Q60751 31-936, limits assumed).
T1 construct: not shown: His tag, not further described
As to the kind of experiment: ELISA, species specific IGF-1R-His coated plate. How it is done: (§1) 96-well Reacti-bind® plates (Pierce, Fisher cat. No. PI-I5041) are coated with 50 ul of species specific ErbB3-His or IGF-1R-His (R&D Systems, cat. No. 348-RB and 305-GR, respectively) at 2 ug/ml in PBS and incubated overnight at 4° C. The next day plates are washed with PBS+0.05% Tween-20 (PBS-T) and blocked for 1 hr. at room temperature with 100 ul of Protein-Free Blocking Buffer (Pierce). Plates are washed with PBS-T and 50 ul of each PBA is added in duplicate. Concentrations start at 500 nM (in PBS-T) and included ten additional two-fold dilutions and one blank (PBS-T only). Plates are incubated at room temperature for two hours and then washed with PBS-T. 50 ul of anti-Fc-HRP (Jackson Labs) is added at 1:40,000 in PBS-T, and plates are incubated in the dark for 1 hr. at room temperature. Plates are again washed with PBS-T and 100 ul of TMB substrate (Thermo Scientific, TMB and peroxide solution mixed 1:1) is added. The plates are incubated for 5-15 minutes at room temperature until a blue color develops, and the reaction is stopped with 100 ul of STOP solution (Cell Signaling Technology). The absorbance is read at 450 nm on a PerkinElmer Envision plate reader, and binding curves are generated using GraphPad Prism.

In assay [2] the target is T2, rat IGF-1R-His (rat, UniProt P24062 31-936, limits assumed).
T2 construct: not shown: His tag, not further described
Description: ELISA, species specific IGF-1R-His coated plate. On the procedure:
as §1

For assay [3], the target named is T3, ErbB3 (HER3), endogenous on human tumor cell lines (human, UniProt P21860 20-1342). Description: cell-based or functional assay.
The target in assay [4] is T4, IGF-1R (receptor for insulin-like growth factor 1), endogenous on human tumor cell lines (human, UniProt P08069 31-1367). As to the kind of experiment: cell-based or functional assay.
The target in assay [5] is T3, ErbB3 (HER3), endogenous on human tumor …. Description: cell-based or functional assay. The source holds these as a separate data set.
Assay [6] deals with T4, IGF-1R (receptor for insulin-like …). Description: cell-based or functional assay. The source holds these as a separate data set.
In assay [7] the target is T3, ErbB3 (HER3), endogenous on human tumor …. As to the kind of experiment: cell-based or functional assay. This is another data set of the same source.
Assay [8] has as its target T4, IGF-1R (receptor for insulin-like …). Description: cell-based or functional assay. This is another data set of the same source.
Assay [9] addresses T5, mouse ErbB3-His (mouse, UniProt Q61526 20-641, limits assumed).
T5 construct: not shown: His tag, not further described for this species form
Description: ELISA, species specific ErbB3-His coated plate. How it is done:
as §1

Assay [10] concerns the target T6, rat ErbB3-His (rat, UniProt Q62799 20-641, limits assumed).
T6 construct: not shown: His tag, not further described for this species form
Description: ELISA, species specific ErbB3-His coated plate. On the procedure: as §1

Assay [11] addresses T4, IGF-1R (receptor for insulin-like …). As to the kind of experiment: cell-based or functional assay. The source holds these as a separate data set.
Assay [12] addresses T3, ErbB3 (HER3), endogenous on human tumor …. As to the kind of experiment: summary sentence of Example 3 (FACS on cells). How it is done:
(§2) 1×10⁵ MCF7 cells or 1×10⁵ ADRr cells are incubated at room temperature for 2 hours with each of ELI-7, ILE-10 and ILE-12, two anti-ErB3 antibodies and one anti-IGF-1R antibody at 2 uM, followed by 12 subsequent 3-fold dilutions. Then using goat anti-HSA-Alexa647 conjugated antibody as the detection antibody, cells are incubated on ice for 40 minutes. Cell binding dissociation constants (measures of binding affinities) of the antibodies on MCF7 and ADRr cells are assessed by FACS and apparent dissociation constants are determined for each protein. The following results were obtained (see also FIGS. 14A and 14B): […]

Assay [13] addresses T4, IGF-1R (receptor for insulin-like …). Description: summary sentence of Example 3 (FACS on cells). How it is done: as §2
In assay [14] the target is T3, ErbB3 (HER3), endogenous on human tumor …. Description: cell-based or functional assay. This is another data set of the same source.
In assay [15] the target is T4, IGF-1R (receptor for insulin-like …). Description: cell-based or functional assay. The source holds these as a separate data set.

T4 sequence (P08069 31-1367): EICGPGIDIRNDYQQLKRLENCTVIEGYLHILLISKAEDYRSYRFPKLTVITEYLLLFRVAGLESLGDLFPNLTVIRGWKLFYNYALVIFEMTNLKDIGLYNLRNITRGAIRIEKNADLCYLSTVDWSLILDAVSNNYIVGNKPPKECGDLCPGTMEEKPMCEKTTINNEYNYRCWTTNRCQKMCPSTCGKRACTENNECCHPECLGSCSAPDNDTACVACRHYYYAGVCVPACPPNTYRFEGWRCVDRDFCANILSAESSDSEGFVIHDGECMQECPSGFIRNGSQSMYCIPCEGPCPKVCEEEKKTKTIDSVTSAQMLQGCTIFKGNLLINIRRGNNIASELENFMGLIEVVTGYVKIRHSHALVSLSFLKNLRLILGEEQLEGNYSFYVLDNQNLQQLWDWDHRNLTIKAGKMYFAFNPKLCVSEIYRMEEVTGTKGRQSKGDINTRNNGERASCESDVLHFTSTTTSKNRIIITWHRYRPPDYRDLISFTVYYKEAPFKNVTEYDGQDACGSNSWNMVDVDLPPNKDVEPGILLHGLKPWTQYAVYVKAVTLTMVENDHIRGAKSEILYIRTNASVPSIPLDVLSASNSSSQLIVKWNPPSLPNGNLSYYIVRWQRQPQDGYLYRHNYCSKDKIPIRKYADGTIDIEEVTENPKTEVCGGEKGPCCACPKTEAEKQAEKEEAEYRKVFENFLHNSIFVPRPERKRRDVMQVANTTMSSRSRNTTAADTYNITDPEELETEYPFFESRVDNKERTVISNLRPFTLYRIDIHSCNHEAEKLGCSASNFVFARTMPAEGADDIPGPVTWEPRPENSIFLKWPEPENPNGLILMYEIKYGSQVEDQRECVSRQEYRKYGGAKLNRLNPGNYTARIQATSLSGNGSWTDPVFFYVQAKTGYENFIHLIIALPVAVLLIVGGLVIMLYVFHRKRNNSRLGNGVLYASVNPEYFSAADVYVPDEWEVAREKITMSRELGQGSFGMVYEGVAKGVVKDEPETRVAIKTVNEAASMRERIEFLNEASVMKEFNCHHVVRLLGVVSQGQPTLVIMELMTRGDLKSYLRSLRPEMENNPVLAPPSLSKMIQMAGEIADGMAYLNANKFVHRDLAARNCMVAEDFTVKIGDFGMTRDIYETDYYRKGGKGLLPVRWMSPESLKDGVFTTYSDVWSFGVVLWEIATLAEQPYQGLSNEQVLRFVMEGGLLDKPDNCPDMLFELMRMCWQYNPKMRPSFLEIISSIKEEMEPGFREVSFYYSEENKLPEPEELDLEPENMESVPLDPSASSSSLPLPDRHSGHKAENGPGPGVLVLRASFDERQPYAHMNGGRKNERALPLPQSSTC
T3 sequence (P21860 20-1342 limits assumed): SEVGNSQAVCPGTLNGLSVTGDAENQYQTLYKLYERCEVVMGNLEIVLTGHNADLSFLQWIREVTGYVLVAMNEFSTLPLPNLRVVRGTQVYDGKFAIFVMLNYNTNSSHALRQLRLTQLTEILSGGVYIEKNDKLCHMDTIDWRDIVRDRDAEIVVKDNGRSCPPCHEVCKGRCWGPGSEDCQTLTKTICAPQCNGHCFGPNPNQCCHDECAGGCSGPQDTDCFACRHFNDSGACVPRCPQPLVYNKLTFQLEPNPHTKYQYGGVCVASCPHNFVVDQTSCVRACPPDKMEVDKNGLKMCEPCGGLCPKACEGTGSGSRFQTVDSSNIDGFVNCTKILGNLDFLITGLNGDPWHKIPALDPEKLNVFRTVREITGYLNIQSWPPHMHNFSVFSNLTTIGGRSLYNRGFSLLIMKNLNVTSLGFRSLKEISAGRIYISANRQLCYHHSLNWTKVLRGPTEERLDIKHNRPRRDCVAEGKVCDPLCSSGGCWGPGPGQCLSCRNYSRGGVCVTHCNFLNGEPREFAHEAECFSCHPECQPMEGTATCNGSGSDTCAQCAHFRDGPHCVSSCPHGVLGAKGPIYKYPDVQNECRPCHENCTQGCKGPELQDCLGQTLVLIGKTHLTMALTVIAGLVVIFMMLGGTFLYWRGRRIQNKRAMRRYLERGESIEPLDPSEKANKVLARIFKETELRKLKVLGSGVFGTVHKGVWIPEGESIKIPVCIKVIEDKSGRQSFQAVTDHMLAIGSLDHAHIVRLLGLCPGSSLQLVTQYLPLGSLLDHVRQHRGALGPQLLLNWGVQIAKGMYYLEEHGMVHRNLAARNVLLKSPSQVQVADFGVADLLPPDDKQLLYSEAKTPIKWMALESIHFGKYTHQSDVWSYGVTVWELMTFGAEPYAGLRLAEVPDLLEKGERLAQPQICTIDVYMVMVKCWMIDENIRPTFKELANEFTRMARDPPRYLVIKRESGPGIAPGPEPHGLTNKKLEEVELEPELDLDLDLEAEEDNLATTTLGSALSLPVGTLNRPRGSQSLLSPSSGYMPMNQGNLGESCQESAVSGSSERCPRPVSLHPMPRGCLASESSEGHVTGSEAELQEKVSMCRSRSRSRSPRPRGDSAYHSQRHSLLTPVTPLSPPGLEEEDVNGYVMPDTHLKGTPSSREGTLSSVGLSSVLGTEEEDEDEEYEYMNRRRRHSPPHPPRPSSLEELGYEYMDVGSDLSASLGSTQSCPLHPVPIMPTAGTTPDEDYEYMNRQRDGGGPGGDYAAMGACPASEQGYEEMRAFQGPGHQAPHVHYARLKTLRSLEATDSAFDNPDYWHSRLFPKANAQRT
T2 sequence (P24062 31-936 limits assumed): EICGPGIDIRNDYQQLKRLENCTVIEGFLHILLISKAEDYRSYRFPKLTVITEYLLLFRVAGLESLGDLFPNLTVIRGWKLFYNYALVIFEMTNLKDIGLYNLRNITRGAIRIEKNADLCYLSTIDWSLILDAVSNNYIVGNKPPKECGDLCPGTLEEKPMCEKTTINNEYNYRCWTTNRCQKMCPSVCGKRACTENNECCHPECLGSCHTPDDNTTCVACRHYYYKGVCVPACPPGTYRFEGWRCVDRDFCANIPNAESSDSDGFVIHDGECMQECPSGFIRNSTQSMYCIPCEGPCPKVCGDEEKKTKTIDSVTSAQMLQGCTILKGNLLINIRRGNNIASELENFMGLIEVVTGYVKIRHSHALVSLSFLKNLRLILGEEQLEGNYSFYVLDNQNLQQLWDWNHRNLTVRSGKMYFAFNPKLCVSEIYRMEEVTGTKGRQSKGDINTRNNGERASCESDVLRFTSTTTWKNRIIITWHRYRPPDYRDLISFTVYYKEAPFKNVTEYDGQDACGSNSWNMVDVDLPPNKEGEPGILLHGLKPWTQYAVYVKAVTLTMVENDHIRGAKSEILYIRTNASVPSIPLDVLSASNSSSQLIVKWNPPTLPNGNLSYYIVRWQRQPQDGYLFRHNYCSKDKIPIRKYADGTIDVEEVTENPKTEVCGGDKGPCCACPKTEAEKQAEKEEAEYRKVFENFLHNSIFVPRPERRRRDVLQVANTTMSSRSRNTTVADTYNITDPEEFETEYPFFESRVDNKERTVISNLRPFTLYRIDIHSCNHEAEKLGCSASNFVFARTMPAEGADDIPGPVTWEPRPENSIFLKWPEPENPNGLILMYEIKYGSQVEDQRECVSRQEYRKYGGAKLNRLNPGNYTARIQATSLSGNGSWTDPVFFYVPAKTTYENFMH
T1 sequence (Q60751 31-936 limits assumed): as the sequence (P24062 31-936 limits assumed) above, with G271D, F629Y, L714M counted along it
T6 sequence (Q62799 20-641 limits assumed): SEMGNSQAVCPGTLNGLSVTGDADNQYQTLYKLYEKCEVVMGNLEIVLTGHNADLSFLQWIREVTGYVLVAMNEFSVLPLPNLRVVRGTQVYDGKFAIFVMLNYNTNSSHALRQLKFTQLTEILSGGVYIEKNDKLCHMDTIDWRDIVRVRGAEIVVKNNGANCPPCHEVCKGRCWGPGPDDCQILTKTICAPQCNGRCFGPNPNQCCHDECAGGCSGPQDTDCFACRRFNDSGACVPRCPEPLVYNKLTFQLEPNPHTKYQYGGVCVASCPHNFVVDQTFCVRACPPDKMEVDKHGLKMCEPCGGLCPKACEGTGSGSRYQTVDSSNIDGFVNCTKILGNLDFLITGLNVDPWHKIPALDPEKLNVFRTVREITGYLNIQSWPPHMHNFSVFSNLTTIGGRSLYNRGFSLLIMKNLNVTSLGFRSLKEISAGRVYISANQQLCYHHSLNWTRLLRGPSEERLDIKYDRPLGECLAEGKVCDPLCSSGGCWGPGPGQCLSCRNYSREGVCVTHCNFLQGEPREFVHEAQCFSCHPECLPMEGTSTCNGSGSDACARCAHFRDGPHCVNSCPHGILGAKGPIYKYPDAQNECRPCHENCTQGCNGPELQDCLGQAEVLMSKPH
T5 sequence (Q61526 20-641 limits assumed): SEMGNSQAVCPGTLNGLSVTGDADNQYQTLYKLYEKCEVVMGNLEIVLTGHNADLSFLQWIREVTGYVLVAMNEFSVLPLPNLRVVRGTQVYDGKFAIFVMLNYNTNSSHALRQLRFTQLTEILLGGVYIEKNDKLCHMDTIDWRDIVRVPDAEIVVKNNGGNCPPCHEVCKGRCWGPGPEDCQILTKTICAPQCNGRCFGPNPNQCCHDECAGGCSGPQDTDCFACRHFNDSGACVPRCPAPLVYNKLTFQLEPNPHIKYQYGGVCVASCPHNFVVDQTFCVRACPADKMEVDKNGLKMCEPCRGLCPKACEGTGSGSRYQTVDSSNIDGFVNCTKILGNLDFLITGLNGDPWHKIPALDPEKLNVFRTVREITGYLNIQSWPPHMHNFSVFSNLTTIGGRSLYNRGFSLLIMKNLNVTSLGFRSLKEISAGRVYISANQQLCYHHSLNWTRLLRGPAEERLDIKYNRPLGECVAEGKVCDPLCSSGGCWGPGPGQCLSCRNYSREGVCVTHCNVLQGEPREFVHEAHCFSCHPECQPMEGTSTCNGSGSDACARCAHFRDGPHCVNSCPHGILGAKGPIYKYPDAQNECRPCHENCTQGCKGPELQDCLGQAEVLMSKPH

B1: P4-G1-C8 (bispecific antibody, human IgG1, kappa)
heavy: not shown
light: DIQMTQSPSSLSASLGDRVTITCRASQGISSYLAWYQQKPGKAPKLLIYAKSTLQSGVPSRFSGSGSGTDFTLTISSLQPEDSATYYCQQYWTFPLTFGGGTKVEIKRTVAAPSVFIFPPSDEQLKSGTASVVCLLNNFYPREAKVQWKVDNALQSGNSQESVTEQDSKDSTYSLSSTLTLSKADYEKHKVYACEVTHQGLSSPVTKSFNRGEC
notes: IgG1-(scFv)2: anti-IGF-1R Fab, anti-ErbB3 scFv; also called P4-C8
On to B1, for which, in assay [1], the binding result is “binds”. Also, the binding result in assay [2] is “binds”. Besides, in assay [3], the “pAKT IC50 (BxPC-3, HRG 20 ng/ml)” value is 1.06e-10 M; the “pAKT IC50 (BxPC-3, HRG 200 ng/ml)” value came out at 1.01e-10 M; the “pErbB3 IC50 (BxPC-3, HRG 20 ng/ml)” value was 6.76e-11 M; the “pErbB3 IC50 (BxPC-3, HRG 200 ng/ml)” value was 5.7e-11 M. In addition, in assay [4], the “pAKT IC50 (BxPC-3, IGF1 40 ng/ml)” value was 3.8e-10 M; the “pAKT IC50 (BxPC-3, IGF1 400 ng/ml)” value was determined as 3.4e-10 M; the “pIGF1R IC50 (BxPC-3, IGF1 40 ng/ml)” value was found to be 1.1e-10 M; the “pIGF1R IC50 (BxPC-3, IGF1 400 ng/ml)” value was 8.8e-11 M. In assay [5], the “pErbB3 % Inhibition (BxPC-3)” value is 94% and the “pErbB3 IC50 (BxPC-3)” value was 3.6e-11 M (inferred). Further, in assay [6], the “pIGF1R % Inhibition (BxPC-3)” value was found to be 91% and the “pIGF1R IC50 (BxPC-3)” value is 1.3e-10 M (inferred). Moreover, the “pErbB3 IC50 (BxPC-3)” value in [7] was 5.8e-07 M (inferred). Further, the “pIGF1R IC50 (BxPC-3)” value in assay [8] was 1.3e-09 M (inferred). In assay [9], the binding result is “binds”. The binding result in assay [10] is “binds”. Besides, in [11], the “% IGF1R Downregulation (A549, 24 h)” value was determined as 70% and the “% IGF1R Downregulation (BxPC-3, 24 h)” value was determined as 67%.

B2: ILE-12 (bispecific antibody, human IgG2, kappa)
heavy: EVQLLESGGGLVQPGGSLRLSCAASGFTFSVYPMHWVRQAPGKGLEWVSSISSSGGATRYADSVKGRFTISRDNSKNTLYLQMNSLRAEDTAVYYCAKDFYDILTGNAFDIWGQGTMVTVSSASTKGPSVFPLAPCSRSTSESTAALGCLVKDYFPEPVTVSWNSGALTSGVHTFPAVLQSSGLYSLSSVVTVPSSNFGTQTYTCNVDHKPSNTKVDKTVERKCCVECPPCPAPPVAGPSVFLFPPKPKDTLMISRTPEVTCVVVDVSHEDPEVQFNWYVDGVEVHNAKTKPREEQFNSTFRVVSVLTVVHQDWLNGKEYKCKVSNKGLPAPIEKTISKTKGQPREPQVYTLPPSREEMTKNQVSLTCLVKGFYPSDIAVEWESNGQPENNYKTTPPMLDSDGSFFLYSKLTVDKSRWQQGNVFSCSVMHEALHNHYTQKSLSLSPGKGGGGSGGGGSGGGGSLQEVQLLESGGGLVQPGGSLRLSCAASGFTFSVYDMYWVRQAPGKGLEWVSYIYSSGGDTDYADSVKGRFTISRDNSKNTLYLQMNSLRAEDTATYYCARASTNSIYDAMDVWGQGTTVTVSSASTGGGGSGGGGSGGGGSDIQMTQSPSSVSASVGDRVTITCRASQDITNWLAWYQQKPGKAPTLLIYDASTLQSGVPSRFSGSGSGTDFTLTISSLQPEDFATYFCQQANGFPLTFGGGTKVEIK
light: B1 light with L11F, L15T, K51A, W92F
notes: anti-IGF-1R/anti-ErbB3 IgG2-(scFv)2: anti-IGF-1R IgG2 (module 5-7), anti-ErbB3 scFv (module 2-21)
As to B2, the binding result in [12] and in assay [13] was “binds” each time.

B3: ELI-7 (bispecific antibody, human IgG2, lambda)
heavy: EVQLLESGGGLVQPGGSLRLSCAASGFTFSAYNMRWVRQAPGKGLEWVSVIYPSGGATRYADSVKGRFTISRDNSKNTLYLQMNSLRAEDTAVYYCARGYYYYGMDVWGQGTLVTVSSASTKGPSVFPLAPCSRSTSESTAALGCLVKDYFPEPVTVSWNSGALTSGVHTFPAVLQSSGLYSLSSVVTVPSSNFGTQTYTCNVDHKPSNTKVDKTVERKCCVECPPCPAPPVAGPSVFLFPPKPKDTLMISRTPEVTCVVVDVSHEDPEVQFNWYVDGVEVHNAKTKPREEQFNSTFRVVSVLTVVHQDWLNGKEYKCKVSNKGLPAPIEKTISKTKGQPREPQVYTLPPSREEMTKNQVSLTCLVKGFYPSDIAVEWESNGQPENNYKTTPPMLDSDGSFFLYSKLTVDKSRWQQGNVFSCSVMHEALHNHYTQKSLSLSPGKGGGGSGGGGSGGGGSLQEVQLLESGGGLVQPGGSLRLSCAASGFTFSVYPMHWVRQAPGKGLEWVSSISSSGGATRYADSVKGRFTISRDNSKNTLYLQMNSLRAEDTAVYYCAKDFYDILTGNAFDIWGQGTMVTVSSASTGGGGSGGGGSGGGGSDIQMTQSPSSFSASTGDRVTITCRASQGISSYLAWYQQKPGKAPKLLIYAASTLQSGVPSRFSGSGSGTDFTLTISSLQPEDSATYYCQQYFTFPLTFGGGTKVEIK
light: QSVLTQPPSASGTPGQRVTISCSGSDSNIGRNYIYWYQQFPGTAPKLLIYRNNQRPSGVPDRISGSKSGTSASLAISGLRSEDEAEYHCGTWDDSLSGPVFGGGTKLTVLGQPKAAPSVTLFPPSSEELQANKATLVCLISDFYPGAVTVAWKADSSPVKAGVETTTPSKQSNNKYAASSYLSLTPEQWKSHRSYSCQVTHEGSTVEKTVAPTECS
Regarding B3, the “pErbB3 IC50 (BxPC-3, HRG+IGF1)” value in assay [14] amounted to 3.7 nM. In addition, the “pIGF-1R IC50 (BxPC-3, HRG+IGF1)” value in assay [15] is 10 nM.
